Source: FireProtDB

Details: whole UniProt chain shown
[1] = Escherichia coli (strain K12), pH 7.4, Thermal, DSC, phosphate 5 mM, reversible: yes
[2] = Gallus gallus, pH 7, 25 °C, GdnHCl, Fluorescence, Phosphate 10 mM, NaCl 50 mM
[3] = Escherichia coli (strain K12), pH 8.3, Thermal, DSC, borate 40 mM
[4] = Homo sapiens, pH 2.2, 25 °C, GdnHCl, CD, Sodium cacodylate 50 mM, NaCl 50 mM
[5] = Homo sapiens, pH 8, 25 °C, GdnHCl, CD, Tris-HCl 20 mM
[6] = Hirudo medicinalis, pH 5.4, 25 °C, GdnHCl, CD, KH2PO4-NaOH 10 mM, reversible: yes

B1: L-arabinose-binding periplasmic protein wild type, P02924 (protein)
chain: MHKFTKALAAIGLAAVMSQSAMAENLKLGFLVKQPEEPWFQTEWKFADKAGKDLGFEVIKIAVPDGEKTLNAIDSLAASGAKGFVICTPDPKLGSAIVAKARGYDMKVIAVDDQFVNAKGKPMDTVPLVMMAATKIGERQGQELYKEMQKRGWDVKESAVMAITANELDTARRRTTGSMDALKAAGFPEKQIYQVPTKSNDIPGAFDAANSMLVQHPEVKHWLIVGMNDSTVLGGVRATEGQGFKAADIIGIGINGVDAVSELSKAQATGFYGSLLPSPDVHGYKSSEMLYNWVAKDVEPPKFTEVTDVVLITRDNFKEELEKKGLGGK
- Tm [1]: 53.6 °C
- heat capacity change of unfolding [1]: 3.16 kcal/mol/K
- unfolding enthalpy (calorimetric) [1]: 152 kcal/mol

B2: Ovalbumin wild type, P01012 (protein)
chain: MGSIGAASMEFCFDVFKELKVHHANENIFYCPIAIMSALAMVYLGAKDSTRTQINKVVRFDKLPGFGDSIEAQCGTSVNVHSSLRDILNQITKPNDVYSFSLASRLYAEERYPILPEYLQCVKELYRGGLEPINFQTAADQARELINSWVESQTNGIIRNVLQPSSVDSQTAMVLVNAIVFKGLWEKAFKDEDTQAMPFRVTEQESKPVQMMYQIGLFRVASMASEKMKILELPFASGTMSMLVLLPDEVSGLEQLESIINFEKLTEWTSSNVMEERKIKVYLPRMKMEEKYNLTSVLMAMGITDVFSSSANLSGISSAESLKISQAVHAAHAEINEAGREVVGSAEAGVDAASVSEEFRADHPFLFCIKHIATNAVLFFGRCVSP
- Tm (Gallus gallus, pH 6, Thermal, DSC, Na-phosphate): 72.4 °C
- Tm (Gallus gallus, pH 7, Thermal, DSC, Phosphate, transition: 3, reversible: No): 82.5 °C
- Tm (Gallus gallus, pH 7, Thermal, DSC, Unknown, transition: 3, reversible: No): 78.4 °C

B3: Riboflavin-binding protein wild type, P02752 (protein)
chain: MLRFAITLFAVITSSTCQQYGCLEGDTHKANPSPEPNMHECTLYSESSCCYANFTEQLAHSPIIKVSNSYWNRCGQLSKSCEDFTKKIECFYRCSPHAARWIDPRYTAAIQSVPLCQSFCDDWYEACKDDSICAHNWLTDWERDESGENHCKSKCVPYSEMYANGTDMCQSMWGESFKVSESSCLCLQMNKKDMVAIKHLLSESSEESSSMSSSEEHACQKKLLKFEALQQEEGEERR
- denaturant m value [2]: 4.14 kcal/mol/M
- unfolding free energy [2]: 2.78 kcal/mol

B4: Ornithine carbamoyltransferase subunit I wild type, P04391 (protein)
chain: MSGFYHKHFLKLLDFTPAELNSLLQLAAKLKADKKSGKEEAKLTGKNIALIFEKDSTRTRCSFEVAAYDQGARVTYLGPSGSQIGHKESIKDTARVLGRMYDGIQYRGYGQEIVETLAEYASVPVWNGLTNEFHPTQLLADLLTMQEHLPGKAFNEMTLVYAGDARNNMGNSMLEAAALTGLDLRLVAPQACWPEAALVTECRALAQQNGGNITLTEDVAKGVEGADFIYTDVWVSMGEAKEKWAERIALLREYQVNSKMMQLTGNPEVKFLHCLPAFHDDQTTLGKKMAEEFGLHGGMEVTDEVFESAASIVFDQAENRMHTIKAVMVATLSK
- Tm [3]: 62.5 °C
- unfolding enthalpy (calorimetric) [3]: 600 kcal/mol

B5: Lactose operon repressor wild type, P03023 (protein)
chain: MKPVTLYDVAEYAGVSYQTVSRVVNQASHVSAKTREKVEAAMAELNYIPNRVAQQLAGKQSLLIGVATSSLALHAPSQIVAAIKSRADQLGASVVVSMVERSGVEACKAAVHNLLAQRVSGLIINYPLDDQDAIAVEAACTNVPALFLDVSDQTPINSIIFSHEDGTRLGVEHLVALGHQQIALLAGPLSSVSARLRLAGWHKYLTRNQIQPIAEREGDWSAMSGFQQTMQMLNEGIVPTAMLVANDQMALGAMRAITESGLRVGADISVVGYDDTEDSSCYIPPLTTIKQDFRLLGQTSVDRLLQLSQGQAVKGNQLLPVSLVKRKTTLAPNTQTASPRALADSLMQLARQVSRLESGQ
- Tm (Escherichia coli (strain K12), pH 7.4, Thermal, CD, phosphate 5 mM, reversible: no): 53 °C

B6: Peptidyl-prolyl cis-trans isomerase B wild type, P23869 (protein)
chain: MVTFHTNHGDIVIKTFDDKAPETVKNFLDYCREGFYNNTIFHRVINGFMIQGGGFEPGMKQKATKEPIKNEANNGLKNTRGTLAMARTQAPHSATAQFFINVVDNDFLNFSGESLQGWGYCVFAEVVDGMDVVDKIKGVATGRSGMHQDVPKEDVIIESVTVSE
- unfolding free energy (Escherichia coli (strain K12), pH 8, 15 °C, NaCl, Fluorescence, Tris-HCl 0.1 M, NaCl 2.0 M, reversible: yes): 2.51 kcal/mol

B7: Alpha-lactalbumin wild type, P00709 (protein)
chain: MRFFVPLFLVGILFPAILAKQFTKCELSQLLKDIDGYGGIALPELICTMFHTSGYDTQAIVENNESTEYGLFQISNKLWCKSSQVPQSRNICDISCDKFLDDDITDDIMCAKKILDIKGIDYWLAHKALCTEKLEQWLCEKL
- denaturant m value [4]: 0.95 kcal/mol/M
- denaturant midpoint (higher = more stable) [4]: 4.67 M
- unfolding free energy [4]: 4.45 kcal/mol
- heat capacity change of unfolding (Homo sapiens, pH 7, Thermal, CD, Sodium cacodylate 50 mM, NaCl 50 mM, reversible: yes): 1.1 kcal/mol/K
- unfolding free energy (Homo sapiens, pH 7.3, 25 °C, GdnHCl, CD, Tris-HCl 0.05 M, reversible: yes): 6.8 kcal/mol
- denaturant m value [5]: 0.85 kcal/mol/M
- denaturant midpoint (higher = more stable) [5]: 3.09 M
- unfolding free energy [5]: 2.63 kcal/mol

B8: Eglin C wild type, P01051 (protein)
chain: TEFGSELKSFPEVVGKTVDQAREYFTLHYPQYDVYFLPEGSPVTLDLRYNRVRVFYNPGTNVVNHVPHVG
- denaturant m value [6]: 3.87 kcal/mol/M
- unfolding free energy [6]: 6.5 kcal/mol

B9: Tetracycline repressor protein class D wild type, P0ACT4 (protein)
chain: MARLNRESVIDAALELLNETGIDGLTTRKLAQKLGIEQPTLYWHVKNKRALLDALAVEILARHHDYSLPAAGESWQSFLRNNAMSFRRALLRYRDGAKVHLGTRPDEKQYDTVETQLRFMTENGFSLRDGLYAISAVSHFTLGAVLEQQEHTAALTDRPAAPDENLPPLLREALQIMDSDDGEQAFLHGLESLIRGFEVQLTALLQIVGGDKLIIPFC
- denaturant midpoint (higher = more stable) (Escherichia coli, pH 7.5, 22 °C, Urea, CD, Tris-HCl 50 mM, NaCl 150 mM, reversible: yes(96%)): 4.7 M

B10: PTS system mannose-specific EIIAB component wild type, P69797 (protein)
chain: MTIAIVIGTHGWAAEQLLKTAEMLLGEQENVGWIDFVPGENAETLIEKYNAQLAKLDTTKGVLFLVDTWGGSPFNAASRIVVDKEHYEVIAGVNIPMLVETLMARDDDPSFDELVALAVETGREGVKALKAKPVEKAAPAPAAAAPKAAPTPAKPMGPNDYMVIGLARIDDRLIHGQVATRWTKETNVSRIIVVSDEVAADTVRKTLLTQVAPPGVTAHVVDVAKMIRVYNNPKYAGERVMLLFTNPTDVERLVEGGVKITSVNVGGMAFRQGKTQVNNAVSVDEKDIEAFKKLNARGIELEVRKVSTDPKLKMMDLISKIDK
- unfolding free energy (Escherichia coli (strain K12), pH 7.4, 22 °C, GdnHCl, CD, Sodium phosphate 20 mM, reversible: yes): 6.5 kcal/mol
- unfolding enthalpy (van 't Hoff) (Escherichia coli (strain K12), pH 7.4, Thermal, CD, Sodium phosphate 20 mM, reversible: yes): 135 kcal/mol
